Experimental data reported in the supplement of paper PMC12636428.

System: Saccharomyces cerevisiae
Assay: transcriptional activation domain activity (GFP:mCherry ratio, weighted mean of sorted bins, harmonized to initial dataset scale) (arbitrary fluorescence ratio units); higher = stronger transcriptional activation
Details: beta-estradiol 1 µM; induction time 4 h
How it was run: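 Sorting into 8 bins by GFP:mCherry ratio followed a 4-hour hold at 30 °C after cultures were diluted 1:5 into SC with 1 uM beta-estradiol. The yeast diploids carried a GFP reporter and had barcoded protein tiles, fused to an estradiol-inducible synthetic transcription factor, integrated at URA3. Barcodes were then sequenced, and tiles with under 50 reads were removed. Activation activity is the read-weighted mean of bin median fluorescence, averaged across barcodes and linearly mapped onto the initial dataset scale.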

**Q.** “LELPDNLDNADFSKLLEFDAKNDEALFNSNELLSHTMDPVNNIDLTHDHSREV” was tested. Which “transcriptional activation domain activity” value did it give?
**A.** 93000

**Q.** Which “transcriptional activation domain activity” value does the source give for “SKEREQRERSVEQEQPRRKNGRRRRDKRDEQRRRNRRRSSSSRRESRSSRRES” here?
**A.** 44600

**Q.** For “PLVLPVTAFYFYMDSFLKKYLLLYVFITKYESGGMFWRVVFNRFLFLTLLGNI”, which “transcriptional activation domain activity” value is on record?
**A.** 60500

**Q.** Which “transcriptional activation domain activity” value does the source give for “MFALLEILCLICILLLTKPRCLCFSIRLEILIFFSFFFFFFCIFLVGYTLSTL” here?
**A.** 80600

**Q.** “TSSPSAHSSTNTNVVFVFGSEDKRVKEVGDALKVKLAVKGGGKGVKWSGKFTG” was tested. Which “transcriptional activation domain activity” value did it give?
**A.** 25400

**Q.** With “EQLCMPIRRNDMRRRVELVRRCLLAALPSLPFWNEVCLWSTLNVFMSLLQDFF” as the sequence, how does the “transcriptional activation domain activity” value read?
**A.** 82700

**Q.** Which “transcriptional activation domain activity” value does the source give for “ETVQKYDGYRPDILSIWNNEFYPIGKYNDDMTGFKFQMRIKEMQEFLDMEKYS” here?
**A.** 68500

**Q.** How did the “transcriptional activation domain activity” value turn out when “EWTRLVQNPAASPRLLNGFIRQMLADLPTTSILVLVRTALEVSVESYAQAGST” was run?
**A.** 58700

**Q.** How did the “transcriptional activation domain activity” value turn out when “RLFSKQLHPRMFRVCLTLIIIVAIWGLTFICLVIFACNPVEKSWHVTMPGKCI” was run?
**A.** 27500

**Q.** How did the “transcriptional activation domain activity” value turn out when “SNASLSAQHPLGIDEEDLSSKPRCQRCRKSKKGCDRQRPCGRCKDAGIGIEGC” was run?
**A.** 35300

**Q.** Which “transcriptional activation domain activity” value does the source give for “MYLFVLYLFFFIIVIRLFMLLFCVYFSVIFCYLFTLVLLLLFIIFFKLIFILL” here?
**A.** 62600

**Q.** For “QQAHHNVSGPTSKTLLPFLPLHKLMLSNILSPNVRLLFPPLLPLQLSWILWAL”, which “transcriptional activation domain activity” value is on record?
**A.** 61800

**Q.** How did the “transcriptional activation domain activity” value turn out when “MTVLQYPFRFIVRTHFPLIWAYSSSLGVGYVFLIGSFFLFISLHPLPLFCLLC” was run?
**A.** 66100

**Q.** Which “transcriptional activation domain activity” value does the source give for “FSLIKGLGSLVPLNKLRQESLLEEEDENNTEPSDFRTIVEEFQSEYNISDILS” here?
**A.** 45000

**Q.** Which “transcriptional activation domain activity” value does the source give for “GKPRKRLAQACLTCREKKIKCDPGSPKCAQCQKSHRICRGTGSVASSGGPVGV” here?
**A.** 19000

**Q.** With “KVKKKRRRSDSSDEDAIAALKAKRKKKKRADSDSDEEETSRKKSKSKRRRKAD” as the sequence, how does the “transcriptional activation domain activity” value read?
**A.** 42800

**Q.** How did the “transcriptional activation domain activity” value turn out when “RSEKRSEERSSRSGPTDRVEGQERGSDRERGREKRGSDRESSRRDRGGEGERA” was run?
**A.** 31700

**Q.** How did the “transcriptional activation domain activity” value turn out when “PAPSAAPAPAKEEDDDDEKEEAGGKADAKKKKKKKGKKDDEPAPAAAPAAAGK” was run?
**A.** 29400

**Q.** For “MRSTGLESIKGLGTGYVGICGFIYLCISTYMHFLIPNIPNWIFFLLFLYPFLS”, which “transcriptional activation domain activity” value is on record?
**A.** 59300

**Q.** Which “transcriptional activation domain activity” value does the source give for “WLPNWLVPVMTAFSWMTWIAPKHRDLNILTGFNNGMGLLNFWPTWDWNVLLFT” here?
**A.** 54200

**Q.** How did the “transcriptional activation domain activity” value turn out when “LELNWAIGGGDLKHRMNKLREFLEEGRRVEVLLGPKKRGRKATPEEAQGVVKA” was run?
**A.** 34200

**Q.** For “MNTNWNILPPVLFKWGPSLMVLSFNKPYFCSALPWYLYLCIFMCCLTHLYYFI”, which “transcriptional activation domain activity” value is on record?
**A.** 70600

**Q.** How did the “transcriptional activation domain activity” value turn out when “GKVPRRTERRKLWDDVKALRKELIDILLFSPLSLADIHFRYRKREGGVVNYYL” was run?
**A.** 21800

**Q.** With “KNNDATIDNELTQILNEYNMNFNDNLGTSTSGKNKSACPSSFDANAMTKINPS” as the sequence, how does the “transcriptional activation domain activity” value read?
**A.** 51800

**Q.** With “LFATLLKLRVDQLLIMMDPTDLIRSILLSNENHQVLSALDFCWTLMHSVFPLL” as the sequence, how does the “transcriptional activation domain activity” value read?
**A.** 78100

**Q.** For “SRSRSRRRKSSRRRRRDRSEDAESDDHRARRRHKSRKHSSRAGDDEDGKGRSR”, which “transcriptional activation domain activity” value is on record?
**A.** 26100

**Q.** How did the “transcriptional activation domain activity” value turn out when “NCMLRTIHLIWESNLSCTCIVNMLVLPCLHTLSITQCLYERKDKDPNPVILEA” was run?
**A.** 59000

**Q.** With “FFLCTFTFFSFCLHLFLFLCVYRLYPTFCSVYPFFPFPILLLFIWLFMWFFIS” as the sequence, how does the “transcriptional activation domain activity” value read?
**A.** 71800

**Q.** Which “transcriptional activation domain activity” value does the source give for “DLLVLLRKCREVALRIIQKESCFNVLNLRRELVSNLLLSFWVVGQSLTTKVPM” here?
**A.** 33000

**Q.** With “TSQCSISLYHYLIMYHMTLLGVATSVLALVLVCNPAEFLISSSVRLGFIWFCI” as the sequence, how does the “transcriptional activation domain activity” value read?
**A.** 73700

**Q.** For “SLLVLCECLLMTIGVVFTTPHVDFIYRCVNTVTPTTMVYFVVCVLFNHLVILL”, which “transcriptional activation domain activity” value is on record?
**A.** 73100

**Q.** Which “transcriptional activation domain activity” value does the source give for “PLLVLSKRLHSIFMLRCFNDCFAVLGLWLAIFCYQRDQWHLGSFFYSTGLNVK” here?
**A.** 71500

**Q.** How did the “transcriptional activation domain activity” value turn out when “AYANDKESTREKFILVVWIGPQCKVMRKAKVSVHAADVKTTLRVYSIEVAARE” was run?
**A.** 35700

**Q.** For “PVAPPAASQPHPTANTMQATHAPPSSGRRRGRPKGSKNKPKPEAPTGPEASAG”, which “transcriptional activation domain activity” value is on record?
**A.** 6790

**Q.** With “HPLSQRYVLIMSITRLCIPLYFYGYEDNFIGHETTHWIWILVIYVSLQVLILF” as the sequence, how does the “transcriptional activation domain activity” value read?
**A.** 40200

**Q.** Which “transcriptional activation domain activity” value does the source give for “RLEKQGWFAYIKEFRIFLPCLWPTGSIRGKLCLVVLILDLVINRFLRVLTPRQ” here?
**A.** 59800

**Q.** “ADSARGGDADAKYRDRDRQRQTETETDRQTKTERDTQRQRQRHRHTHTHSPVQ” was tested. Which “transcriptional activation domain activity” value did it give?
**A.** 37200

**Q.** For “MVEAQDSSLSSTLFYLSFLDIGATFYTFLLLFFFLEDLEGFLLFIVFWMLLLV”, which “transcriptional activation domain activity” value is on record?
**A.** 44100

**Q.** How did the “transcriptional activation domain activity” value turn out when “SQEESIDNENQKVKEEEIEISVNNIKTEVEKEELKKDNKKGKKVVNKKEIKEE” was run?
**A.** 39900

**Q.** “RLHCHVVCPLSHSLLTQVYLFLFFFLSNLLITSLSLPVHFFPFILCLCCIAHF” was tested. Which “transcriptional activation domain activity” value did it give?
**A.** 58000

**Q.** “MVVFGCRCNVMLYILFCNLRFLLRGAVCIQILTMFILWCAMTEIVLSVLPILS” was tested. Which “transcriptional activation domain activity” value did it give?
**A.** 47300

**Q.** With “GSTHPRQVFDQLDDCSSILFSPLTTNTNNEFEGESDDFVHSPYLNSEADFSQI” as the sequence, how does the “transcriptional activation domain activity” value read?
**A.** 75200

**Q.** For “MATLDEALDNEGGKRRRSHKKSRRGCGDCRRRRVKCSEENPRCQACVRRGVQC”, which “transcriptional activation domain activity” value is on record?
**A.** 67400

**Q.** How did the “transcriptional activation domain activity” value turn out when “MYHALHKSGLSDTYIIQDVGVPFDAVEAFYKWLHETLHIYPLWLCPIRVRRYT” was run?
**A.** 44700

**Q.** “PLSLLIYFLEWIGPLNLWIRCLCKTSLIEFYFRLLVILLMPFLFVFWHIIGLG” was tested. Which “transcriptional activation domain activity” value did it give?
**A.** 40100

**Q.** “AGNATAGTGTGKGKGKGKGKGKGKGKKAGKNAGKNAGKNAGKNSTAAAGGQQK” was tested. Which “transcriptional activation domain activity” value did it give?
**A.** 20100

**Q.** With “IAKEIGKRLGFDENSEISYLAGIWSHCIAQQLIWNVAGGLLRVRGWLWKINLS” as the sequence, how does the “transcriptional activation domain activity” value read?
**A.** 79900

**Q.** For “RCANARIVWGARVVGVGGQGEGEAKAWVDVEMAGEEGAKRVERREADFVVGCD”, which “transcriptional activation domain activity” value is on record?
**A.** 37600

**Q.** With “MFDYLVFTLCPCIFFILFLLILLVLLHKALVVFFFYHYSILVLVVPYYCLFVF” as the sequence, how does the “transcriptional activation domain activity” value read?
**A.** 86400

**Q.** “ERKEAKEQTRRETESKARRGADKEGSEENREDEEGEKKERTSESTDKQKSRRT” was tested. Which “transcriptional activation domain activity” value did it give?
**A.** 33700

**Q.** Which “transcriptional activation domain activity” value does the source give for “PQSANITGACTELGEHTDCPIWNLLDARSLFRSCADLLISSWTWWWLAACRYV” here?
**A.** 44700

**Q.** How did the “transcriptional activation domain activity” value turn out when “FGFVFFVASLENGHYKFQFTNFAWTHMALYLIVCQAHFVMNNIFEGMIWFFLP” was run?
**A.** 66100

**Q.** “LQRPVRIMVDTKHSTVKTLVQEFVRIRPQRDHLRLAMLVLLCRDYFHKRVIVF” was tested. Which “transcriptional activation domain activity” value did it give?
**A.** 49000

**Q.** “SSSKSKPIPDAKKRKSSASKPKSASSADRDTKRSGSRPESGKKSSTSSRSSKS” was tested. Which “transcriptional activation domain activity” value did it give?
**A.** 22900

**Q.** Which “transcriptional activation domain activity” value does the source give for “IGIVYLLLCPFAFIFAYYFMRLRRTLIGSMPLSVINDPLLVELKVRFQLLDRG” here?
**A.** 42000

**Q.** For “NSIIPFFRFLGCIVLSGAFYFYIFFYAFLLCLFLIYFFFHGSKLGFFHFIFFP”, which “transcriptional activation domain activity” value is on record?
**A.** 40600

**Q.** Which “transcriptional activation domain activity” value does the source give for “AQSSPVRASPHPADSPSKPAAKPVSKPATAAPPAASKPTTAAAPKAAAAKPVS” here?
**A.** 27200

**Q.** Which “transcriptional activation domain activity” value does the source give for “MVMVKIPFLLAFVYLFLVLHSHVLVHSFRNFTSLLVFACLLGVGMWRCVWTQM” here?
**A.** 58000

**Q.** For “YLFYRLGLNIREIQLRSRGLILLQSLSVLGWSLLASSFSGLYFIGYPCFIHWW”, which “transcriptional activation domain activity” value is on record?
**A.** 42700

**Q.** With “KSEKPEKERKHRDKGEREHRDRSEREHKVREPKEPREKGEKEKRHKTAEEKAG” as the sequence, how does the “transcriptional activation domain activity” value read?
**A.** 16900

**Q.** “MTNRQRVGHKKSRHGCIRCKARRVKCDEQRPCSNCVRHRTPCSLSQEPLAAAL” was tested. Which “transcriptional activation domain activity” value did it give?
**A.** 45200
